The labels stand for the following.
T1: Aacec B (cecropin B) peptide (Aedes aegypti)
T1 sequence: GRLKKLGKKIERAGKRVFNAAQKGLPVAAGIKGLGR

T2: Aacec B (cecropin B) peptide (Aedes aegypti)
T2 chain: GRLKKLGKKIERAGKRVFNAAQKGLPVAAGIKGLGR

B1: nucleotide replacement 2 (GG to TA) (dsDNA)
DNA 1: TCGAAATGTTTAAATCCCGG
DNA 2: CCGGGATTTAAACATTTCGA
B2: nucleotide replacement 3 ((A/C)A to TA) (dsDNA)
DNA 1: TCGAAATGTTGGTATCCCGG
DNA 2: CCGGGATACCAACATTTCGA
B3: nucleotide replacement 4 ((A/C)A to CG) (dsDNA)
DNA 1: TCGAAATGTTGGCGTCCCGG
DNA 2: CCGGGACGCCAACATTTCGA
B4: nucleotide replacement 1 (TT to CC) (dsDNA)
DNA 1: TCGAAATGCCGGAATCCCGG
DNA 2: CCGGGATTCCGGCATTTCGA
B5: AaPPO 3-Cu B2 oligo (TTGGAA) (dsDNA)
DNA 1: GAGTATCGGTACTTGGAAGATTTTG
DNA 2: CAAAATCTTCCAAGTACCGATACTC
B6: AaPPO 3-Cu B3 oligo (TTGGCA) (dsDNA)
DNA 1: GTTCTATCGTTGGCACGGAATGATC
DNA 2: GATCATTCCGTGCCAACGATAGAAC
B7: AaPPO 3-Cu A1 oligo (TTGGCA) (dsDNA)
DNA 1: CATGCACCATTGGCACTGGCATTTA
DNA 2: TAAATGCCAGTGCCAATGGTGCATG
B8: AaPPO 3-5' end-1-2 oligo (TTGGAA) (dsDNA)
DNA 1: GTTCGAAATGTTGGAATCCCGGATC
DNA 2: GATCCGGGATTCCAACATTTCGAAC

The first data set has as its system T1, Aacec B (cecropin B) peptide (Aedes aegypti). Put plainly: pull-down.
Conditions: not given
Consider “ATAACGAGAAATGATTTGGCTGTGCATATAGTAGAAAAGTTCACCACGGCGATCTTTCTTAGCAATTTCCGGTGGCGCCCCAGCAGGATACACTAAATGCCAGTGCCAATGGTGCATGTTGACTCCGATGTCCTCACGGAAGTATGCCAT (double strand) [Cu A fragment]”, for which the binding entry was “binds”.
With “GTTAGCTGGCGATTTGCAGAGCAGGTTCACGAGTGGCGCGGAGGTCGAAATTCCGGTTCGAAATGTTGGAATCCCGGATCTTGCCTTTGCGGAG (double strand) [5' end-1-2 fragment]”, the binding result was “binds”.
Same read-out and setting: with “CTCCGCAAAGGCAAGATCCGGGATTCCAACATTTCGAACCGGAATTTCGACCTCCGCGCCACTCGTGAACCTGCTCTGCAAATCGCCAGCTAACGGACGATAACGATCACTCAAATACTCGTCCGGAATTATGAGCGATGTTTTACCATCGTCCTTTGGCATAAACGATGGCTCCAGAGGGCGTTGCAGAAGCGCTTGGAAAGATTTACTCTCAGCCATCTTTTAACAACAAAACAATGCGTTTCCGTACGATAGCTATCGATTGGAGATTGG (double strand) [5' end-1 fragment]” the entry was “binds”; with “ATGGCATACTTCCGTGAGGACATCGGAGTCAACATGCACCATTGGCACTGGCATTTAGT (double strand) [Cu A1 fragment]”, “binds”.
Still for that read-out and setting: with “TGACGTGACAACGGCAATGCGTGATCCTGTGTTCTATCGTTGGCACGGAATGATCGATGGCTTGT (double strand) [Cu B3 fragment]” the entry was “binds”; with “AACAAGCCATCGATCATTCCGTGCCAACGATAGAACACAGGATCACGCATTGCCGTTGTCACGTCACCCATTACTCCAAAATCTTCCAAGTACCGATACTCAGGATCGTGAATGTAGGCCAAAAAATCATGTCCAAAGTTATGCAAACTCCCATACAACCTCCTGTTGACGGAAAGCGTGGAAGCTTCAACCAAGTCACCTAAAAT (double strand) [Cu B fragment]”, “binds”.
Still for that read-out and setting: with “GCCTACATTCACGATCCTGAGTATCGGTACTTGGAAGATTTTGGAGTAATGGG (double strand) [Cu B2 fragment]” the entry was “binds”.

The target of the next data set is T2, Aacec B (cecropin B) peptide. Put plainly: EMSA; EMSA: 6% native polyacrylamide gel, LightShift chemiluminescent kit; buffer, salt, pH and temperature not given in the material (cited to earlier work). The note with it: tags: none stated for EMSA; conjugated to beads for pull-down; label: biotin; blunt.
Consider B1, for which the binding result is on record as “no binding”.
Still for that read-out and setting: with B2 the entry was “no binding”.
The same measure, in the same setting: with B3 the entry was “no binding”; with B4, “no binding”.

For another data set the target is unchanged. Put plainly: EMSA; 1 ng peptide; EMSA: 6% native polyacrylamide gel, LightShift chemiluminescent kit; buffer, salt, pH and temperature not given in the material (cited to earlier work). Particulars: tags: none stated for EMSA; conjugated to beads for pull-down; label: biotin end label; blunt. (In general: Mobility shift assays separate free from complexed probe on a gel.)
On to B5, for which the binding result was “binds”.
Regarding B6, the binding result is “binds”.
Still for that read-out and setting: the result for B7 reads “binds”.
B8: the binding result is given as “binds”.

These data come from article PMC5703890, “Involvement of cecropin B in the formation of the Aedes aegypti mosquito cuticle”.
